According to PMC6948721:

Tests used:
Conditions in all cases: 10 mM Na2HPO4 pH 7.3, 22 °C
purified protein [1] = substrate: O=C(O)C=CC=C(O)C(=O)O; assay: purified protein
purified protein [2] = substrate: O=C(O)C(O)=Cc1ccccc1; assay: purified protein
[3] = substrate: C=CC=C(O)C(=O)O; assay: UV steady-state kinetics, enol-keto tautomerization; format: biochemical, Burkholderia lata
[4] = substrate: CC(=CC=C(O)C(=O)O)C(=O)O; assay: as above; format: biochemical, Burkholderia lata

Row | Protein | Km (purified protein [1]) | kcat (purified protein [1]) | kcat/Km (purified protein [1]) | Km (purified protein [2]) | kcat (purified protein [2]) | kcat/Km (purified protein [2]) | Km [3] | kcat [3] | kcat/Km [3] | Km [4] | kcat [4] | kcat/Km [4]
1 | unfused 4-OT (Burkholderia lata) (protein) chain 1: PTLEVFLPAGHDDARKAELIARLTGATVDSIGAPIESVRVLLTELPATHIGLGGRSAADGAPPSL chain 2: PVIVAILIAGRTDEQKRALIAALSETSASVLDAPLQATRVMIKDIPNTDFGIGGQTARALGR | 148 ± 18 µM | 105 ± 6 s⁻¹ | 710000 M⁻¹ s⁻¹ | 346 ± 28 µM | 19.3 ± 0.7 s⁻¹ | 56000 M⁻¹ s⁻¹ | – | – | – | – | – | –
2 | fused 4-OT (fused 4-oxalocrotonate tautomerase) (Burkholderia lata) (protein) PTLEVFLPAGHDDARKAELIARLTGATVDSIGAPIESVRVLLTELPATHIGLGGRSAADGAPPSLPVIVAILIAGRTDEQKRALIAALSETSASVLDAPLQATRVMIKDIPNTDFGIGGQTARALGR | – | – | – | – | – | – | 1330 ± 140 µM | 170 ± 12 s⁻¹ | 130000 M⁻¹ s⁻¹ | 147 ± 9 µM | 72 ± 2 s⁻¹ | 490000 M⁻¹ s⁻¹
